This passage reports Kd results from paper doi:10.1101/711796.

The target of this experiment is taxol-stabilized microtubules (UniProt Q6B856). The experiment in a line: co-sedimentation.
Chain of UniProt Q6B856 (Q6B856 whole entry, looked up): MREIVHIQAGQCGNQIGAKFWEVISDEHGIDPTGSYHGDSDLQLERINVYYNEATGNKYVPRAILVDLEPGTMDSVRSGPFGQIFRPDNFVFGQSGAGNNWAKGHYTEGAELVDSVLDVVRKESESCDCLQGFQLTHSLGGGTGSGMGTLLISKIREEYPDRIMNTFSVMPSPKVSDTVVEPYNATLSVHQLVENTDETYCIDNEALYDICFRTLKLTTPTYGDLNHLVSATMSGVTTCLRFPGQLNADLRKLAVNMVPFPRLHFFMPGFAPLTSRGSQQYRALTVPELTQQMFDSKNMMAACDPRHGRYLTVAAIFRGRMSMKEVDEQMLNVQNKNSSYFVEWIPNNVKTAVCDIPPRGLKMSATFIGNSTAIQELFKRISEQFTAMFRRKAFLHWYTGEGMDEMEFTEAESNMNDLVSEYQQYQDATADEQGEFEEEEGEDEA

With “6xHIS-tagged ZmTAN1 (TANGLED1, maize) (natural protein)”, the Kd – broadly, the equilibrium constant for the complex coming apart – amounted to 1270 nM.
As for HIS-TAN1-GFP (natural protein), the Kd amounted to 590 nM.
Next, HIS-TAN1-GFP-Atto488 (natural protein): 60 nM.
